We go through 67 variants from the Human Domainome abundance scans (Beltran et al. 2025).

± gives the uncertainty stated by the source.

B1: Friend leukemia integration 1 transcription factor, residues 116 to 197; numbered along this chain, Q01543 (parent)
chain: NMTTNERRVIVPADPTLWTQEHVRQWLEWAIKEYSLMEIDTSFFQNMDGKELCKMNKEDFLRATTLYNTEVLLSHLSYLRES

Variants of B1 are the subject of this data set. Kind of data set: abundance fitness (aPCA) (normalised: wild type 0, dead -1); higher = more abundant; growth selection in yeast, the domain comes from the species named. The settings on record: Homo sapiens.
As to NMTTNERRKIVPADPTLWTQEHVRQWLEWAIKEYSLMEIDTSFFQNMDGKELCKMNKEDFLRATTLYNTEVLLSHLSYLRES, the abundance fitness is 0.116 ± 0.098.
With NMTTNERRSIVPADPTLWTQEHVRQWLEWAIKEYSLMEIDTSFFQNMDGKELCKMNKEDFLRATTLYNTEVLLSHLSYLRES the figure was 0.212 ± 0.073.
For NMTTNERRLIVPADPTLWTQEHVRQWLEWAIKEYSLMEIDTSFFQNMDGKELCKMNKEDFLRATTLYNTEVLLSHLSYLRES, the abundance fitness was -0.045 ± 0.068.
In the case of NMTTNERRIIVPADPTLWTQEHVRQWLEWAIKEYSLMEIDTSFFQNMDGKELCKMNKEDFLRATTLYNTEVLLSHLSYLRES it was -0.122 ± 0.12.
In the case of NMTTNERRWIVPADPTLWTQEHVRQWLEWAIKEYSLMEIDTSFFQNMDGKELCKMNKEDFLRATTLYNTEVLLSHLSYLRES it was 0 ± 0.091; in that of NMTTNERRAIVPADPTLWTQEHVRQWLEWAIKEYSLMEIDTSFFQNMDGKELCKMNKEDFLRATTLYNTEVLLSHLSYLRES, 0.14 ± 0.075; in that of NMTTNERRFIVPADPTLWTQEHVRQWLEWAIKEYSLMEIDTSFFQNMDGKELCKMNKEDFLRATTLYNTEVLLSHLSYLRES, -0.018 ± 0.2.
In the case of NMTTNERRRIVPADPTLWTQEHVRQWLEWAIKEYSLMEIDTSFFQNMDGKELCKMNKEDFLRATTLYNTEVLLSHLSYLRES it was 0.172 ± 0.059; in that of NMTTNERRMIVPADPTLWTQEHVRQWLEWAIKEYSLMEIDTSFFQNMDGKELCKMNKEDFLRATTLYNTEVLLSHLSYLRES, -0.156 ± 0.095.
Take NMTTNERRYIVPADPTLWTQEHVRQWLEWAIKEYSLMEIDTSFFQNMDGKELCKMNKEDFLRATTLYNTEVLLSHLSYLRES: the abundance fitness is -0.605 ± 0.46.
In the case of NMTTNERRDIVPADPTLWTQEHVRQWLEWAIKEYSLMEIDTSFFQNMDGKELCKMNKEDFLRATTLYNTEVLLSHLSYLRES it was -0.055 ± 0.3.
With NMTTNERRNIVPADPTLWTQEHVRQWLEWAIKEYSLMEIDTSFFQNMDGKELCKMNKEDFLRATTLYNTEVLLSHLSYLRES the figure was 0.18 ± 0.16; with NMTTNERRTIVPADPTLWTQEHVRQWLEWAIKEYSLMEIDTSFFQNMDGKELCKMNKEDFLRATTLYNTEVLLSHLSYLRES, 0.039 ± 0.098.
In the case of NMTTNERRHIVPADPTLWTQEHVRQWLEWAIKEYSLMEIDTSFFQNMDGKELCKMNKEDFLRATTLYNTEVLLSHLSYLRES it was 0.099 ± 0.34.
Turning to NMTTNERRCIVPADPTLWTQEHVRQWLEWAIKEYSLMEIDTSFFQNMDGKELCKMNKEDFLRATTLYNTEVLLSHLSYLRES, the abundance fitness came out at 0.046 ± 0.17.
In the case of NMTTNERIVIVPADPTLWTQEHVRQWLEWAIKEYSLMEIDTSFFQNMDGKELCKMNKEDFLRATTLYNTEVLLSHLSYLRES it was -0.406 ± 0.21.
NMTTNERCVIVPADPTLWTQEHVRQWLEWAIKEYSLMEIDTSFFQNMDGKELCKMNKEDFLRATTLYNTEVLLSHLSYLRES: the abundance fitness is -0.301 ± 0.26.
With NMTTNERPVIVPADPTLWTQEHVRQWLEWAIKEYSLMEIDTSFFQNMDGKELCKMNKEDFLRATTLYNTEVLLSHLSYLRES the figure was -0.026 ± 0.12; with NMTTNEREVIVPADPTLWTQEHVRQWLEWAIKEYSLMEIDTSFFQNMDGKELCKMNKEDFLRATTLYNTEVLLSHLSYLRES, 0.045 ± 0.13; with NMTTNERDVIVPADPTLWTQEHVRQWLEWAIKEYSLMEIDTSFFQNMDGKELCKMNKEDFLRATTLYNTEVLLSHLSYLRES, 0.015 ± 0.2.
In the case of NMTTNERVVIVPADPTLWTQEHVRQWLEWAIKEYSLMEIDTSFFQNMDGKELCKMNKEDFLRATTLYNTEVLLSHLSYLRES it was -0.297 ± 0.14; in that of NMTTNERMVIVPADPTLWTQEHVRQWLEWAIKEYSLMEIDTSFFQNMDGKELCKMNKEDFLRATTLYNTEVLLSHLSYLRES, -0.108 ± 0.1; in that of NMTTNERSVIVPADPTLWTQEHVRQWLEWAIKEYSLMEIDTSFFQNMDGKELCKMNKEDFLRATTLYNTEVLLSHLSYLRES, -0.215 ± 0.09.
In the case of NMTTNERTVIVPADPTLWTQEHVRQWLEWAIKEYSLMEIDTSFFQNMDGKELCKMNKEDFLRATTLYNTEVLLSHLSYLRES it was -0.236 ± 0.14; in that of NMTTNERYVIVPADPTLWTQEHVRQWLEWAIKEYSLMEIDTSFFQNMDGKELCKMNKEDFLRATTLYNTEVLLSHLSYLRES, -0.403 ± 0.24; in that of NMTTNERFVIVPADPTLWTQEHVRQWLEWAIKEYSLMEIDTSFFQNMDGKELCKMNKEDFLRATTLYNTEVLLSHLSYLRES, -0.174 ± 0.2.
NMTTNERHVIVPADPTLWTQEHVRQWLEWAIKEYSLMEIDTSFFQNMDGKELCKMNKEDFLRATTLYNTEVLLSHLSYLRES: the abundance fitness was -0.039 ± 0.14.
In the case of NMTTNERLVIVPADPTLWTQEHVRQWLEWAIKEYSLMEIDTSFFQNMDGKELCKMNKEDFLRATTLYNTEVLLSHLSYLRES it was -0.369 ± 0.1; in that of NMTTNERWVIVPADPTLWTQEHVRQWLEWAIKEYSLMEIDTSFFQNMDGKELCKMNKEDFLRATTLYNTEVLLSHLSYLRES, -0.452 ± 0.18.
In the case of NMTTNERQVIVPADPTLWTQEHVRQWLEWAIKEYSLMEIDTSFFQNMDGKELCKMNKEDFLRATTLYNTEVLLSHLSYLRES it was -0.097 ± 0.11; in that of NMTTNERGVIVPADPTLWTQEHVRQWLEWAIKEYSLMEIDTSFFQNMDGKELCKMNKEDFLRATTLYNTEVLLSHLSYLRES, -0.52 ± 0.12; in that of NMTTNERAVIVPADPTLWTQEHVRQWLEWAIKEYSLMEIDTSFFQNMDGKELCKMNKEDFLRATTLYNTEVLLSHLSYLRES, -0.172 ± 0.099.
For NMTTNEKRVIVPADPTLWTQEHVRQWLEWAIKEYSLMEIDTSFFQNMDGKELCKMNKEDFLRATTLYNTEVLLSHLSYLRES, the abundance fitness is -0.292 ± 0.29.
In the case of NMTTNEGRVIVPADPTLWTQEHVRQWLEWAIKEYSLMEIDTSFFQNMDGKELCKMNKEDFLRATTLYNTEVLLSHLSYLRES it was -0.135 ± 0.092; in that of NMTTNEQRVIVPADPTLWTQEHVRQWLEWAIKEYSLMEIDTSFFQNMDGKELCKMNKEDFLRATTLYNTEVLLSHLSYLRES, -0.092 ± 0.14.
With NMTTNEFRVIVPADPTLWTQEHVRQWLEWAIKEYSLMEIDTSFFQNMDGKELCKMNKEDFLRATTLYNTEVLLSHLSYLRES the figure was -0.179 ± 0.23; with NMTTNELRVIVPADPTLWTQEHVRQWLEWAIKEYSLMEIDTSFFQNMDGKELCKMNKEDFLRATTLYNTEVLLSHLSYLRES, 0.155 ± 0.058.
In the case of NMTTNESRVIVPADPTLWTQEHVRQWLEWAIKEYSLMEIDTSFFQNMDGKELCKMNKEDFLRATTLYNTEVLLSHLSYLRES it was -0.156 ± 0.097; in that of NMTTNECRVIVPADPTLWTQEHVRQWLEWAIKEYSLMEIDTSFFQNMDGKELCKMNKEDFLRATTLYNTEVLLSHLSYLRES, -0.06 ± 0.4; in that of NMTTNEHRVIVPADPTLWTQEHVRQWLEWAIKEYSLMEIDTSFFQNMDGKELCKMNKEDFLRATTLYNTEVLLSHLSYLRES, -0.284 ± 0.24.
Turning to NMTTNEWRVIVPADPTLWTQEHVRQWLEWAIKEYSLMEIDTSFFQNMDGKELCKMNKEDFLRATTLYNTEVLLSHLSYLRES, the abundance fitness is -0.179 ± 0.11.
With NMTTNEVRVIVPADPTLWTQEHVRQWLEWAIKEYSLMEIDTSFFQNMDGKELCKMNKEDFLRATTLYNTEVLLSHLSYLRES the figure was -0.05 ± 0.11; with NMTTNEMRVIVPADPTLWTQEHVRQWLEWAIKEYSLMEIDTSFFQNMDGKELCKMNKEDFLRATTLYNTEVLLSHLSYLRES, -0.089 ± 0.14.
For the variant NMTTNEYRVIVPADPTLWTQEHVRQWLEWAIKEYSLMEIDTSFFQNMDGKELCKMNKEDFLRATTLYNTEVLLSHLSYLRES, the abundance fitness is -0.125 ± 0.21.
With NMTTNEPRVIVPADPTLWTQEHVRQWLEWAIKEYSLMEIDTSFFQNMDGKELCKMNKEDFLRATTLYNTEVLLSHLSYLRES the figure was -0.045 ± 0.1; with NMTTNEIRVIVPADPTLWTQEHVRQWLEWAIKEYSLMEIDTSFFQNMDGKELCKMNKEDFLRATTLYNTEVLLSHLSYLRES, -0.247 ± 0.28.
NMTTNEERVIVPADPTLWTQEHVRQWLEWAIKEYSLMEIDTSFFQNMDGKELCKMNKEDFLRATTLYNTEVLLSHLSYLRES: the abundance fitness was -0.044 ± 0.096.
In the case of NMTTNEARVIVPADPTLWTQEHVRQWLEWAIKEYSLMEIDTSFFQNMDGKELCKMNKEDFLRATTLYNTEVLLSHLSYLRES it was -0.243 ± 0.1; in that of NMTTNERRVPVPADPTLWTQEHVRQWLEWAIKEYSLMEIDTSFFQNMDGKELCKMNKEDFLRATTLYNTEVLLSHLSYLRES, 0.26 ± 0.088; in that of NMTTNERRVTVPADPTLWTQEHVRQWLEWAIKEYSLMEIDTSFFQNMDGKELCKMNKEDFLRATTLYNTEVLLSHLSYLRES, 0.092 ± 0.089.
Consider NMTTNERRVYVPADPTLWTQEHVRQWLEWAIKEYSLMEIDTSFFQNMDGKELCKMNKEDFLRATTLYNTEVLLSHLSYLRES, for which the abundance fitness was -0.237 ± 0.19.
Take NMTTNERRVQVPADPTLWTQEHVRQWLEWAIKEYSLMEIDTSFFQNMDGKELCKMNKEDFLRATTLYNTEVLLSHLSYLRES: the abundance fitness is 0.03 ± 0.1.
In the case of NMTTNERRVHVPADPTLWTQEHVRQWLEWAIKEYSLMEIDTSFFQNMDGKELCKMNKEDFLRATTLYNTEVLLSHLSYLRES it was -0.033 ± 0.16.
As to NMTTNERRVCVPADPTLWTQEHVRQWLEWAIKEYSLMEIDTSFFQNMDGKELCKMNKEDFLRATTLYNTEVLLSHLSYLRES, the abundance fitness was -0.258 ± 0.17.
In the case of NMTTNERRVLVPADPTLWTQEHVRQWLEWAIKEYSLMEIDTSFFQNMDGKELCKMNKEDFLRATTLYNTEVLLSHLSYLRES it was -0.148 ± 0.069.
With NMTTNERRVGVPADPTLWTQEHVRQWLEWAIKEYSLMEIDTSFFQNMDGKELCKMNKEDFLRATTLYNTEVLLSHLSYLRES the figure was 0.163 ± 0.082.
Consider NMTTNERRVDVPADPTLWTQEHVRQWLEWAIKEYSLMEIDTSFFQNMDGKELCKMNKEDFLRATTLYNTEVLLSHLSYLRES, for which the abundance fitness was 0.207 ± 0.16.
In the case of NMTTNERRVAVPADPTLWTQEHVRQWLEWAIKEYSLMEIDTSFFQNMDGKELCKMNKEDFLRATTLYNTEVLLSHLSYLRES it was 0.15 ± 0.11; in that of NMTTNERRVVVPADPTLWTQEHVRQWLEWAIKEYSLMEIDTSFFQNMDGKELCKMNKEDFLRATTLYNTEVLLSHLSYLRES, 0.035 ± 0.075.
For NMTTNERRVNVPADPTLWTQEHVRQWLEWAIKEYSLMEIDTSFFQNMDGKELCKMNKEDFLRATTLYNTEVLLSHLSYLRES, the abundance fitness was determined as 0.103 ± 0.23.
With NMTTNERRVMVPADPTLWTQEHVRQWLEWAIKEYSLMEIDTSFFQNMDGKELCKMNKEDFLRATTLYNTEVLLSHLSYLRES the figure was -0.012 ± 0.1; with NMTTNERRVFVPADPTLWTQEHVRQWLEWAIKEYSLMEIDTSFFQNMDGKELCKMNKEDFLRATTLYNTEVLLSHLSYLRES, -0.216 ± 0.16; with NMTTNERRVRVPADPTLWTQEHVRQWLEWAIKEYSLMEIDTSFFQNMDGKELCKMNKEDFLRATTLYNTEVLLSHLSYLRES, 0.098 ± 0.072.
With NMTTNERRVWVPADPTLWTQEHVRQWLEWAIKEYSLMEIDTSFFQNMDGKELCKMNKEDFLRATTLYNTEVLLSHLSYLRES the figure was -0.197 ± 0.12; with NMTTNERRVSVPADPTLWTQEHVRQWLEWAIKEYSLMEIDTSFFQNMDGKELCKMNKEDFLRATTLYNTEVLLSHLSYLRES, 0.231 ± 0.12.
Take NMTTNERRVKVPADPTLWTQEHVRQWLEWAIKEYSLMEIDTSFFQNMDGKELCKMNKEDFLRATTLYNTEVLLSHLSYLRES: the abundance fitness was found to be 0.086 ± 0.12.
As to NMTTNERRVEVPADPTLWTQEHVRQWLEWAIKEYSLMEIDTSFFQNMDGKELCKMNKEDFLRATTLYNTEVLLSHLSYLRES, the abundance fitness came to 0.231 ± 0.08.
